{"source": "the supplement of paper PMC9112550", "about": "“Optimization of the antimicrobial peptide Bac7 by deep mutational scanning” (BMC Biology, 2022);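 also: peptides expressed intracellularly from a pBAD plasmid library in pooled LB shake-flask culture, induced with 0.3% L-arabinose, DNA abundance read by NGS, three biological replicates, DESeq2 with apeglm shrinkage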", "data": [{"tested_on": "Escherichia coli TOP10", "assay": "shrunken log2 fold change of peptide-encoding DNA abundance (4.5 h post-induction vs induction); higher = less antimicrobial activity (less host growth inhibition)", "details": "time post-induction: 4.5 h; library: site-saturation at positions 5, 18, 19, 20", "values": [{"sequence": "RRIRMRPPRLPRPRPRPCRDPRP", "shrunken log2 fold change": 0.244}, {"sequence": "RRIRTRPPRLPRPRPRPCFPPRP", "shrunken log2 fold change": -0.141}, {"sequence": "RRIRPRPPRLPRPRPRPFHQPRP", "shrunken log2 fold change": -0.216}, {"sequence": "RRIRNRPPRLPRPRPRPRGIPRP", "shrunken log2 fold change": -0.0954}, {"sequence": "RRIRGRPPRLPRPRPRPQKSPRP", "shrunken log2 fold change": 0.316}, {"sequence": "RRIRGRPPRLPRPRPRPCKHPRP", "shrunken log2 fold change": 0.112}, {"sequence": "RRIRARPPRLPRPRPRPLYDPRP", "shrunken log2 fold change": -0.124}, {"sequence": "RRIRMRPPRLPRPRPRPHRRPRP", "shrunken log2 fold change": 0.0631}, {"sequence": "RRIRGRPPRLPRPRPRPEFHPRP", "shrunken log2 fold change": 1.85}, {"sequence": "RRIRIRPPRLPRPRPRPSWAPRP", "shrunken log2 fold change": -0.0867}, {"sequence": "RRIRSRPPRLPRPRPRPHGCPRP", "shrunken log2 fold change": -0.0029}, {"sequence": "RRIRWRPPRLPRPRPRPNWWPRP", "shrunken log2 fold change": 0.182}, {"sequence": "RRIRGRPPRLPRPRPRPVFDPRP", "shrunken log2 fold change": 0.39}, {"sequence": "RRIRIRPPRLPRPRPRPEMCPRP", "shrunken log2 fold change": 0.0321}, {"sequence": "RRIRCRPPRLPRPRPRPMWTPRP", "shrunken log2 fold change": -0.0185}, {"sequence": "RRIRRRPPRLPRPRPRPGKWPRP", "shrunken log2 fold change": 0.152}, {"sequence": "RRIRRRPPRLPRPRPRPIFIPRP", "shrunken log2 fold change": -0.0166}, {"sequence": "RRIRIRPPRLPRPRPRPKDCPRP", "shrunken log2 fold change": -0.0124}, {"sequence": "RRIRLRPPRLPRPRPRPRCHPRP", "shrunken log2 fold change": -0.277}, {"sequence": "RRIRRRPPRLPRPRPRPIFHPRP", "shrunken log2 fold change": 0.129}, {"sequence": "RRIRKRPPRLPRPRPRPFCQPRP", "shrunken log2 fold change": 0.212}, {"sequence": "RRIRLRPPRLPRPRPRPLRYPRP", "shrunken log2 fold change": -0.0797}, {"sequence": "RRIRQRPPRLPRPRPRPSRLPRP", "shrunken log2 fold change": 0.101}, {"sequence": "RRIRHRPPRLPRPRPRPMVAPRP", "shrunken log2 fold change": 0.195}, {"sequence": "RRIRSRPPRLPRPRPRPRVNPRP", "shrunken log2 fold change": -0.189}, {"sequence": "RRIRHRPPRLPRPRPRPNHLPRP", "shrunken log2 fold change": -0.0856}, {"sequence": "RRIRYRPPRLPRPRPRPQPCPRP", "shrunken log2 fold change": 0.025}, {"sequence": "RRIRDRPPRLPRPRPRPLFRPRP", "shrunken log2 fold change": -0.168}, {"sequence": "RRIRTRPPRLPRPRPRPIVPPRP", "shrunken log2 fold change": -0.229}, {"sequence": "RRIRSRPPRLPRPRPRPNMPPRP", "shrunken log2 fold change": -0.278}, {"sequence": "RRIRFRPPRLPRPRPRPACCPRP", "shrunken log2 fold change": 0.229}, {"sequence": "RRIRLRPPRLPRPRPRPRCCPRP", "shrunken log2 fold change": 0.0851}, {"sequence": "RRIRTRPPRLPRPRPRPWWYPRP", "shrunken log2 fold change": -0.308}, {"sequence": "RRIRIRPPRLPRPRPRPYTCPRP", "shrunken log2 fold change": -0.0187}, {"sequence": "RRIRDRPPRLPRPRPRPFIVPRP", "shrunken log2 fold change": -0.193}, {"sequence": "RRIRMRPPRLPRPRPRPQVQPRP", "shrunken log2 fold change": -0.000946}, {"sequence": "RRIRMRPPRLPRPRPRPGCQPRP", "shrunken log2 fold change": 0.719}, {"sequence": "RRIRCRPPRLPRPRPRPFAGPRP", "shrunken log2 fold change": -0.175}, {"sequence": "RRIRCRPPRLPRPRPRPMSYPRP", "shrunken log2 fold change": -0.23}, {"sequence": "RRIRMRPPRLPRPRPRPSYQPRP", "shrunken log2 fold change": -0.115}, {"sequence": "RRIRARPPRLPRPRPRPLYVPRP", "shrunken log2 fold change": -0.0921}, {"sequence": "RRIRRRPPRLPRPRPRPFNPPRP", "shrunken log2 fold change": -0.277}, {"sequence": "RRIRKRPPRLPRPRPRPYTRPRP", "shrunken log2 fold change": -0.167}, {"sequence": "RRIRKRPPRLPRPRPRPYFSPRP", "shrunken log2 fold change": -0.178}, {"sequence": "RRIRLRPPRLPRPRPRPAPAPRP", "shrunken log2 fold change": 0.512}, {"sequence": "RRIRVRPPRLPRPRPRPVLWPRP", "shrunken log2 fold change": 0.453}, {"sequence": "RRIRIRPPRLPRPRPRPYMKPRP", "shrunken log2 fold change": -0.495}, {"sequence": "RRIRHRPPRLPRPRPRPWHAPRP", "shrunken log2 fold change": -0.0793}, {"sequence": "RRIRVRPPRLPRPRPRPDYTPRP", "shrunken log2 fold change": -0.495}, {"sequence": "RRIRARPPRLPRPRPRPHQHPRP", "shrunken log2 fold change": -0.109}, {"sequence": "RRIRFRPPRLPRPRPRPEVMPRP", "shrunken log2 fold change": -0.0905}, {"sequence": "RRIRGRPPRLPRPRPRPFFAPRP", "shrunken log2 fold change": 0.747}, {"sequence": "RRIRMRPPRLPRPRPRPLHYPRP", "shrunken log2 fold change": -0.173}, {"sequence": "RRIRGRPPRLPRPRPRPDIFPRP", "shrunken log2 fold change": 0.837}, {"sequence": "RRIRQRPPRLPRPRPRPRWLPRP", "shrunken log2 fold change": 0.453}, {"sequence": "RRIRERPPRLPRPRPRPKKDPRP", "shrunken log2 fold change": -0.346}, {"sequence": "RRIRNRPPRLPRPRPRPTLTPRP", "shrunken log2 fold change": 0.0952}, {"sequence": "RRIRRRPPRLPRPRPRPASTPRP", "shrunken log2 fold change": -0.0241}, {"sequence": "RRIRSRPPRLPRPRPRPYMNPRP", "shrunken log2 fold change": -0.479}, {"sequence": "RRIRKRPPRLPRPRPRPYQVPRP", "shrunken log2 fold change": 0.0805}, {"sequence": "RRIRLRPPRLPRPRPRPCCRPRP", "shrunken log2 fold change": 0.0477}, {"sequence": "RRIRGRPPRLPRPRPRPHILPRP", "shrunken log2 fold change": -0.198}, {"sequence": "RRIRVRPPRLPRPRPRPEKTPRP", "shrunken log2 fold change": 0.0303}, {"sequence": "RRIRARPPRLPRPRPRPMATPRP", "shrunken log2 fold change": 0.601}, {"sequence": "RRIRLRPPRLPRPRPRPVWRPRP", "shrunken log2 fold change": 0.299}, {"sequence": "RRIRTRPPRLPRPRPRPLPHPRP", "shrunken log2 fold change": -0.00316}, {"sequence": "RRIRFRPPRLPRPRPRPFVFPRP", "shrunken log2 fold change": -0.454}, {"sequence": "RRIRMRPPRLPRPRPRPFNQPRP", "shrunken log2 fold change": -0.0903}, {"sequence": "RRIRTRPPRLPRPRPRPSYGPRP", "shrunken log2 fold change": -0.259}, {"sequence": "RRIRSRPPRLPRPRPRPMEHPRP", "shrunken log2 fold change": -0.122}, {"sequence": "RRIRIRPPRLPRPRPRPAWLPRP", "shrunken log2 fold change": 0.272}, {"sequence": "RRIRPRPPRLPRPRPRPKLCPRP", "shrunken log2 fold change": -0.0437}, {"sequence": "RRIRGRPPRLPRPRPRPSQDPRP", "shrunken log2 fold change": 0.296}, {"sequence": "RRIRQRPPRLPRPRPRPPCSPRP", "shrunken log2 fold change": 0.219}, {"sequence": "RRIRSRPPRLPRPRPRPLKMPRP", "shrunken log2 fold change": 0.127}]}]}
